Assay results: FireProtDB (doi:10.1073/pnas.90.18.8367)

Conditions: Enterobacteria phage fd; pH 7; 25 °C; GdnHCl; CD; MOPS 50 mM; NaCl 100 mM; reversible: yes; whole UniProt chain shown

B1: DNA-Binding protein G5P wild type, P69542 (protein)
chain: MIKVEIKPSQAQFTTRSGVSRQGKPYSLNEQLCYVDLGNEYPVLVKITLDEGQPAYAPGLYTVHLSSFKVGQFGSLMIDRLRLVPAK
Question: Which unfolding free energy does the source give for B1 here?
Answer: 9 kcal/mol
